# T1: periplasmic domain of the EAEC TssM protein (enteroaggregative Escherichia coli …)
# T1 construct: TssM of enteroaggregative Escherichia coli (EAEC), a 1129-amino-acid inner membrane protein; periplasmic domain, amino-acids 386-1129; also called TssM periplasmic domain; source: recombinant, produced and purified as described previously [11]
# T1 chain: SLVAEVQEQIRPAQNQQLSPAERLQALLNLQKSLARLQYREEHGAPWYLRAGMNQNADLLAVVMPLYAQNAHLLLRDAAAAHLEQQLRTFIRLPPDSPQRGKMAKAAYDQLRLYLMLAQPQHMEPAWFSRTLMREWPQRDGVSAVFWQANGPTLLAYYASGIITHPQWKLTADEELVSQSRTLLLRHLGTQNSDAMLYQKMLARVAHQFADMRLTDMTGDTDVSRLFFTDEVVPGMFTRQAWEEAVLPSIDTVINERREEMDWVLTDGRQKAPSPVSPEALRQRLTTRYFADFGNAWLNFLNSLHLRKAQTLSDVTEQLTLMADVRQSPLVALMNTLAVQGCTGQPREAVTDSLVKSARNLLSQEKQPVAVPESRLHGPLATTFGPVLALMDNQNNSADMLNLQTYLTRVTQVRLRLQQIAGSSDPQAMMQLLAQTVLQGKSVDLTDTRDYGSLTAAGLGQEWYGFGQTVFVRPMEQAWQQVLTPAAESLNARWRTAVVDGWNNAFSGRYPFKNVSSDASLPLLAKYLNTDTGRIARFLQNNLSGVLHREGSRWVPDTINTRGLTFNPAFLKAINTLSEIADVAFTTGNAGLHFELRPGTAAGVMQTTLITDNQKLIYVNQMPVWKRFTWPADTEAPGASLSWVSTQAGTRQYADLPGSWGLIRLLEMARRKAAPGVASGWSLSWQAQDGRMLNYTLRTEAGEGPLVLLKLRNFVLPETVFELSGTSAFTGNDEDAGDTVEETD
# Molecular target: T1, periplasmic domain of the EAEC TssM …
# Assay: SPR; nanobodies covalently linked to a CM5 chip, TssMp injected (1.95 to 250 nM); Biacore X100; multi-cycle kinetics; regeneration with glycine-HCl pH 2.5; apparent KDs
# Settings: both partners purified
Binder,Kd [nM],koff [s⁻¹],kon [M⁻¹ s⁻¹]
"anti-TssM nanobody nb25 (VHH, llama VHH raised against TssMp; CDR3 of 19 residues, disulfide bridge between Cys-106 and CDR2 Cys-50; source: E. coli WK6 periplasm (pHEN6, pelB signal peptide), purified (Ni-NTA, Superdex 75)) VHH: QVQLVESGGGLVQAGGSLRLSCAASGFTFEDYAIGWFRQAPGKEREGVSCISNLDGSTYYPDSVKGRFTASSDKAKNMVYLQMNSLKPEDTAVYYCAAVNAQGIYCTDYIIGPYGMDYWGKGTQVTVSS",1.61 ± 0.05,0.00056,350000
"anti-TssM nanobody nb02 (VHH, llama VHH raised against TssMp; CDR3 of 14 residues; source: E. coli WK6 periplasm (pHEN6, pelB signal peptide), purified (Ni-NTA, Superdex 75)) VHH: DVQLVESGGGLVHPGGSLRLSCAASGRTFSDYALGWFRQAPGKDREFVAAISWSGGSTYYADSVQGRFTISRDNDKNSVYLQMNSLKPEDTAVYYCAADKYYTGPGGESVYDYWGRGTQVTVSS",66.8 ± 2.5,0.0402,602000
"anti-TssM nanobody nb42 (VHH, very similar to nb25, CDR3 identical to that of nb25; No structure was solved for nb42; also called nb25 variant nb42; source: E. coli WK6 periplasm (pHEN6, pelB signal peptide), purified (Ni-NTA, Superdex 75)) VHH: DVQLVESGGGLVQAGGSLRLSCAASGFTFGDYAIGWFRQAPGKEREGVSCFSNSDGSTYYADSVKGRFTSSSDNAKNTQYLQMNSLKPEDTAIYYCAAVKAQGIYCTEYIIGPYGMDYWGKGTLVTVSS",1.76 ± 0.08,0.00036,204000

# — paper PMC4374921, “Inhibition of Type VI Secretion by an Anti-TssM Llama Nanobody” (PLoS ONE, 2015)
